Laboratory results from patent US20230250154A1 (CYTONICS, published 2023).

B1: Variant A2M, bait region SEQ ID NO 27 (other)
chain: SVSGKPQYMVLVPSLLHTETTEKGCVLLSYLNETVTVSASLESVRGNRSLFTDLEAENDVLHCVAFAVPKSSSNEEVMFLTVQVKGPTQEFKKRTTVMVKNEDSLVFVQTDKSIYKPGQTVKFRVVSMDENFHPLNELIPLVYIQDPKGNRIAQWQSFQLEGGLKQFSFPLSSEPFQGSYKVVVQKKSGGRTEHPFTVEEFVLPKFEVQVTVPKIITILEEEMNVSVCGLYTYGKPVPGHVTVSICRKYSDASDCHGEDSQAFCEKFSGQLNSHGCFYQQVKTKVFQLKRKEYEMKLHTEAQIQEEGTVVELTGRQSSEITRTITKLSFVKVDSHFRQGIPFFGQVRLVDGKGVPIPNKVIFIRGNEANYYSNATTDEHGLVQFSINTTNVMGTSLTVRVNYKDRSPCYGYQWVSEEHEEAHHTAYLVFSPSKSFVHLEPMSHELPCGHTQTVQAHYILNGGTLLGLKKLSFYYLIMAKGGIVRTGTHGLLVKQEDMKGHFSISIPVKSDIAPVARLLIYAVLPTGDVIGDSAKYDVENCLANKVDLSFSPSQSLPASHAHLRVTAAPQSVCALRAVDQSVLLMKPDAELSASSVYNLLPEKDLTGFPGPLNDQDDEDCINRHNVYINGITYTPVSSTNEKDMYSFLEDMGLKAFTNSKIRKPKMCPQLEQYEMHGPEGEGEGEGIPENFYGVSEDLYTASELEGRGSVEEPHTKLRKYFPETWIWDLVVVNSAGVAEVGVTVPDTITEWKAGAFCLSEDAGLGISSTASLRAFQPFFVELTMPYSVIRGEAFTLKATVLNYLPKCIRVSVQLEASPAFLAVPVEKEQAPHCICANGRQTVSWAVTPKSLGNVNFTVSAEALESQELCGTEVPSVPEHGRKDTVIKPLLVEPEGLEKETTFNSLLCPSGGEVSEELSLKLPPNVVEESARASVSVLGDILGSAMQNTQNLLQMPYGCGEQNMVLFAPNIYVLDYLNETQQLTPEIKSKAIGYLNTGYQRQLNYKHYDGSYSTFGERYGRNQGNTWLTAFVLKTFAQARAYIFIDEAHITQALIWLSQRQKDNGCFRSSGSLLNNAIKGGVEDEVTLSAYITIALLEIPLTVTHPVVRNALFCLESAWKTAQEGDHGSHVYTKALLAYAFALAGNQDKRKEVLKSLNEEAVKKDNSVHWERPQKPKAPVGHFYEPQAPSAEVEMTSYVLLAYLTAQPAPTSEDLTSATNIVKWITKQQNAQGGFSSTQDTVVALHALSKYGAATFTRTGKAAQVTIQSSGTFSSKFQVDNNNRLLLQQVSLPELPGEYSMKVTGEGCVYLQTSLKYNILPEKEEFPFALGVQTLPQTCDEPKAHTSFQISLSVSYTGSRSASNMAIVDVKMVSGFIPLKPTVKMLERSNHVSRTEVSSNHVLIYLDKVSNQTLSLFFTVLQDVPVRDLKPAIVKVYDYYETDEFAIAEYNAPCSKDLGNADYKDDDDKGASHHHHHH
B2: Variant A2M, bait region SEQ ID NO 29 (other)
chain: SVSGKPQYMVLVPSLLHTETTEKGCVLLSYLNETVTVSASLESVRGNRSLFTDLEAENDVLHCVAFAVPKSSSNEEVMFLTVQVKGPTQEFKKRTTVMVKNEDSLVFVQTDKSIYKPGQTVKFRVVSMDENFHPLNELIPLVYIQDPKGNRIAQWQSFQLEGGLKQFSFPLSSEPFQGSYKVVVQKKSGGRTEHPFTVEEFVLPKFEVQVTVPKIITILEEEMNVSVCGLYTYGKPVPGHVTVSICRKYSDASDCHGEDSQAFCEKFSGQLNSHGCFYQQVKTKVFQLKRKEYEMKLHTEAQIQEEGTVVELTGRQSSEITRTITKLSFVKVDSHFRQGIPFFGQVRLVDGKGVPIPNKVIFIRGNEANYYSNATTDEHGLVQFSINTTNVMGTSLTVRVNYKDRSPCYGYQWVSEEHEEAHHTAYLVFSPSKSFVHLEPMSHELPCGHTQTVQAHYILNGGTLLGLKKLSFYYLIMAKGGIVRTGTHGLLVKQEDMKGHFSISIPVKSDIAPVARLLIYAVLPTGDVIGDSAKYDVENCLANKVDLSFSPSQSLPASHAHLRVTAAPQSVCALRAVDQSVLLMKPDAELSASSVYNLLPEKDLTGFPGPLNDQDDEDCINRHNVYINGITYTPVSSTNEKDMYSFLEDMGLKAFTNSKIRKPKMCPQLEQPEGEGEGPRYLTAIPENFFGVSEDLVVQISELEGRGSVEEPHTKLRKYFPETWIWDLVVVNSAGVAEVGVTVPDTITEWKAGAFCLSEDAGLGISSTASLRAFQPFFVELTMPYSVIRGEAFTLKATVLNYLPKCIRVSVQLEASPAFLAVPVEKEQAPHCICANGRQTVSWAVTPKSLGNVNFTVSAEALESQELCGTEVPSVPEHGRKDTVIKPLLVEPEGLEKETTFNSLLCPSGGEVSEELSLKLPPNVVEESARASVSVLGDILGSAMQNTQNLLQMPYGCGEQNMVLFAPNIYVLDYLNETQQLTPEIKSKAIGYLNTGYQRQLNYKHYDGSYSTFGERYGRNQGNTWLTAFVLKTFAQARAYIFIDEAHITQALIWLSQRQKDNGCFRSSGSLLNNAIKGGVEDEVTLSAYITIALLEIPLTVTHPVVRNALFCLESAWKTAQEGDHGSHVYTKALLAYAFALAGNQDKRKEVLKSLNEEAVKKDNSVHWERPQKPKAPVGHFYEPQAPSAEVEMTSYVLLAYLTAQPAPTSEDLTSATNIVKWITKQQNAQGGFSSTQDTVVALHALSKYGAATFTRTGKAAQVTIQSSGTFSSKFQVDNNNRLLLQQVSLPELPGEYSMKVTGEGCVYLQTSLKYNILPEKEEFPFALGVQTLPQTCDEPKAHTSFQISLSVSYTGSRSASNMAIVDVKMVSGFIPLKPTVKMLERSNHVSRTEVSSNHVLIYLDKVSNQTLSLFFTVLQDVPVRDLKPAIVKVYDYYETDEFAIAEYNAPCSKDLGNADYKDDDDKGASHHHHHH

Columns and labels:
Assay in all cases: cell-based or functional assay
[1] = target: T1, MMP7 (UniProt P09237 95-267, limits assumed)
T1 sequence (looked up): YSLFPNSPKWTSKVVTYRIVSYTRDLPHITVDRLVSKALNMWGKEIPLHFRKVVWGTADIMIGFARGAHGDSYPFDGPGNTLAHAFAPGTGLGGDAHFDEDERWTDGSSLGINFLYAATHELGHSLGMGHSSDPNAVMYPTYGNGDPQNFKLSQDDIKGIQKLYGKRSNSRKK

[2] = target: MMP9 (human, UniProt P14780 107-707, limits assumed)
[3] = target: MMP13 (human, UniProt P45452 104-471, limits assumed)
[4] = target: MMP8 (human, UniProt P22894 101-467, limits assumed)
[5] = target: Elastase
[6] = target: MMP3 (human, UniProt P08254 100-477, limits assumed)
[7] = target: T2, MMP2 (human, UniProt P08253 110-660, limits assumed)
T2 sequence (looked up): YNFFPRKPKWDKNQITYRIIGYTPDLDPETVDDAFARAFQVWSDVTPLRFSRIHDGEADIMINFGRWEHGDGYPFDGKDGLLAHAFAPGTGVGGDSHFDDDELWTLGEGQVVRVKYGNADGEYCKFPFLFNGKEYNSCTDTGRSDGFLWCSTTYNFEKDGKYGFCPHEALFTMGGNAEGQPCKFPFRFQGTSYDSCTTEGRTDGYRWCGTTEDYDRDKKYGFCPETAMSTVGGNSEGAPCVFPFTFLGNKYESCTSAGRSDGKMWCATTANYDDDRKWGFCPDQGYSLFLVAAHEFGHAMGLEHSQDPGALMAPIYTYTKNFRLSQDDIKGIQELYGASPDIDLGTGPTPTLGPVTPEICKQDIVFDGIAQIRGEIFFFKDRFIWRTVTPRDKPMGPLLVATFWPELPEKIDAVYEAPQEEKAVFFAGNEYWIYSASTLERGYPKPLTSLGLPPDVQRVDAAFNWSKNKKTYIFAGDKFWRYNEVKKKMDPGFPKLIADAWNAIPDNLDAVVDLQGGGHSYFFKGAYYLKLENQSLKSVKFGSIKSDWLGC

[8] = target: T3, ADAMTS5 (human, UniProt Q9UNA0 262-622, limits assumed)
T3 sequence (looked up): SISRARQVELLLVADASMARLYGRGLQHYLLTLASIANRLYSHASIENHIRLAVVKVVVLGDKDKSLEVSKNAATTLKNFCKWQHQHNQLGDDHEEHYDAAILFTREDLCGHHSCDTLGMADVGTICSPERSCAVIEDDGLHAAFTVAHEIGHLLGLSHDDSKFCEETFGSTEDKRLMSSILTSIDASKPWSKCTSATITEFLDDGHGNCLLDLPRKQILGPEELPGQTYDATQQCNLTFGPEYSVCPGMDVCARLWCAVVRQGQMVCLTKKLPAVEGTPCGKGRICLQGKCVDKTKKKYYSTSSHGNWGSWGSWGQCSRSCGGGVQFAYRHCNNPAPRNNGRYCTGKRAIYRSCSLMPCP

[9] = target: T4, MMP1 (human, UniProt P03956 100-469, limits assumed)
T4 sequence (looked up): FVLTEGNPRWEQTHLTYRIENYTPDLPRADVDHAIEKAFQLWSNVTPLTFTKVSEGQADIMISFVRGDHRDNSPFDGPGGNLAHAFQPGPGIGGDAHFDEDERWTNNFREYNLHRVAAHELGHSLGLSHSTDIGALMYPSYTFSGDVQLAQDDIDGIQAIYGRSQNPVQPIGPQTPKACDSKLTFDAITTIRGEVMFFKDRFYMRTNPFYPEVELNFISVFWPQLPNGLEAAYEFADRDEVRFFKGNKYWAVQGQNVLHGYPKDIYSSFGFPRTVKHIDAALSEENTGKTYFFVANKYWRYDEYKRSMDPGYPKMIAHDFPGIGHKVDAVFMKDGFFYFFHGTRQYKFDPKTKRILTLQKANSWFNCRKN

[10] = target: T5, Cathepsin G (UniProt P08311 21-244)
T5 sequence (looked up): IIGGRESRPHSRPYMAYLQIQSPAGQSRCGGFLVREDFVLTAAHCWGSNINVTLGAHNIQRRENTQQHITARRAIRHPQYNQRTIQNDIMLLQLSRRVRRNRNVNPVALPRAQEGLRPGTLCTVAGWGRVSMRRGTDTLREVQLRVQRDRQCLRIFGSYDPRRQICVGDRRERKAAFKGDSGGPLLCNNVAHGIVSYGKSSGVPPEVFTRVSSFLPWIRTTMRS

MMP9, sequence (P14780 107-707 limits assumed): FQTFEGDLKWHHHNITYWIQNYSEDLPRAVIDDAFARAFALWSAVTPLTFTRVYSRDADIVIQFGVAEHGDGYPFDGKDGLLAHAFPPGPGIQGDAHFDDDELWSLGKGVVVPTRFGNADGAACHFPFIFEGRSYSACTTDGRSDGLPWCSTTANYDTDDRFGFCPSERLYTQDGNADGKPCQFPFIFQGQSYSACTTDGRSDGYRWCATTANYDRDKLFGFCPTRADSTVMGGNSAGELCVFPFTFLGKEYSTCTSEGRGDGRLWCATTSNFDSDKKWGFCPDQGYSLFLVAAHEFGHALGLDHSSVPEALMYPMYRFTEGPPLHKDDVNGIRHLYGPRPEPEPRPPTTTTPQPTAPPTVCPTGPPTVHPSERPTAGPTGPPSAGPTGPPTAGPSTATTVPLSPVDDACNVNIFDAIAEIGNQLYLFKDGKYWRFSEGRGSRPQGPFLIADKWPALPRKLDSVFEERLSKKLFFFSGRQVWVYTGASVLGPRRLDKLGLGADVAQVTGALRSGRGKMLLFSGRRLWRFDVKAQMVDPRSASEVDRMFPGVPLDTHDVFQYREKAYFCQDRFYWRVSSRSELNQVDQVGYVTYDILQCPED
MMP8, sequence (P22894 101-467 limits assumed): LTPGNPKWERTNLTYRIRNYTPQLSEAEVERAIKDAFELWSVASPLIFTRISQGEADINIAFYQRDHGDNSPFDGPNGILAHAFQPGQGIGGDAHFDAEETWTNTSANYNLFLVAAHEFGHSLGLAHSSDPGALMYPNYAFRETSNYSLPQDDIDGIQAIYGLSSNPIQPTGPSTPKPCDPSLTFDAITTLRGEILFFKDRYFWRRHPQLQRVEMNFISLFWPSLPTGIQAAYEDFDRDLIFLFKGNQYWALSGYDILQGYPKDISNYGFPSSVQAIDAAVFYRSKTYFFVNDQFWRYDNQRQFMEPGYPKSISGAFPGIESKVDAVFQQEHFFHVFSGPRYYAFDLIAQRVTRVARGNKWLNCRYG
MMP3, sequence (P08254 100-477 limits assumed): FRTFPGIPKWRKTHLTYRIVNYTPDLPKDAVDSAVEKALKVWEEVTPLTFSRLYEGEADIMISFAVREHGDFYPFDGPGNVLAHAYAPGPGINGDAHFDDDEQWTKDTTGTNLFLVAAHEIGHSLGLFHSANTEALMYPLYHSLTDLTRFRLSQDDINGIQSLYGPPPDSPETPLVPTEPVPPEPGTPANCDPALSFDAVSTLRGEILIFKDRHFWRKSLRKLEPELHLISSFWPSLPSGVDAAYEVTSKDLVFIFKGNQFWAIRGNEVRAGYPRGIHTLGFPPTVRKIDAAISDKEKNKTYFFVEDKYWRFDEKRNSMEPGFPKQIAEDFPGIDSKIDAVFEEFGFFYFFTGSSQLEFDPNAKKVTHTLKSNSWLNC

Protease Inhibition (% of WT) [1] | Protease Inhibition (% of WT) [2] | Protease Inhibition (% of WT) [3] | Protease Inhibition (% of WT) [4] | Protease Inhibition (% of WT) [5] | Protease Inhibition (% of WT) [6] | Protease Inhibition (% of WT) [7] | Protease Inhibition (% of WT) [8] | Protease Inhibition (% of WT) [9] | Protease Inhibition (% of WT) [10] | Binder
138 % of WT | 13 % of WT | 54 % of WT | 43 % of WT | 79 % of WT | 33 % of WT | 16 % of WT | 114 % of WT | 109 % of WT | 161 % of WT | B1
104 % of WT | 5 % of WT | 70 % of WT | 29 % of WT | 98 % of WT | 101 % of WT | 16 % of WT | 85 % of WT | 87 % of WT | 84 % of WT | B2
